This experiment concerns the target T1, DsRed fused to the Gal4 DNA binding domain (pGBT9) (Discosoma species).
T1 construct: range 1-147; also called DsRed-prey
As to the kind of experiment: yeast two hybrid in HF7C (HIS3 and LacZ reporters). Here is the method:
Yeast two hybrid assays were also performed. […] Alternatively, the yeast were grown on filters placed on plates lacking tryptophan and leucine to select for the bait and prey plasmids. After overnight growth, the filters were removed from the plates, frozen in liquid nitrogen, thawed, and incubated in X-gal overnight at 30° C. and two days at 4° C. to test for β-galactosidase activity (assayed by blue color development).

These results are taken from US20040259165A1 (published 2004).

B1: DsRed fused to the Gal4 activation domain (pGAD GH) (other)
chain: ANFNQSGNIADSSLSFTFTNSSNGPNLITTQTNSQALSQPIASSNVHDNFMNNEITASKIDDGNNSKPLSPGWTDQTAYNAFGITTGMFNTTTMDDVYNYLFDDEDTPPNPKKEMRSSKNVIKEFMRFKVRMEGTVNGHEFEIEGEGEGRPYEGHNTVKLKVTKGGPLPFAWDILSPQFQYGSKVYVKHPADIPDYKKLSFPEGFKWERVMNFEDGGVVTVTQDSSLQDGCFIYKVKFIGVNFPSDGPVMQKKTMGWEASTERLYPRDGVLKGEIHKALKLKDGGHYLVEFKSIYMAKKPVQLPGYYYVDSKLDITSHNEDYTIVEQYERTEGRHHLFL
notes: range 768-881; also called DsRed-bait
Turning to B1, the binding result is reported as “binds”.
